In PMC9254666:

Molecular target: p53 (Homo sapiens), P04637
Assay: ELISA
Conditions: remark: other sources report otherwise

p53 (Homo sapiens), P04637, sequence (P04637 whole entry): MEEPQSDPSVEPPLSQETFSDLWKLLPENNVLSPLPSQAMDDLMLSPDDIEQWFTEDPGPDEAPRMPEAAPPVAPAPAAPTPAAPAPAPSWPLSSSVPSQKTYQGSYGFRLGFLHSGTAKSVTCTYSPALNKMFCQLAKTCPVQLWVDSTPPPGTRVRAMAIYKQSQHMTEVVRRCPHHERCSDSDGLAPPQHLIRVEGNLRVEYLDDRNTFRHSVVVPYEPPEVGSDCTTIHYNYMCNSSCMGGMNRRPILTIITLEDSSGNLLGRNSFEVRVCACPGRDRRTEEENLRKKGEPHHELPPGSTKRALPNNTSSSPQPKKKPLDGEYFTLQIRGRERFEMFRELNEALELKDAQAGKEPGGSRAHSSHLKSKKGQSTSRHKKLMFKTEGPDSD

Kd: 4.4 nM
B1: HDMX, O15151 (protein)
chain: MTSFSTSAQCSTSDSACRISPGQINQVRPKLPLLKILHAAGAQGEMFTVKEVMHYLGQYIMVKQLYDQQEQHMVYCGGDLLGELLGRQSFSVKDPSPLYDMLRKNLVTLATATTDAAQTLALAQDHSMDIPSQDQLKQSAEESSTSRKRTTEDDIPTLPTSEHKCIHSREDEDLIENLAQDETSRLDLGFEEWDVAGLPWWFLGNLRSNYTPRSNGSTDLQTNQDVGTAIVSDTTDDLWFLNESVSEQLGVGIKVEAADTEQTSEEVGKVSDKKVIEVGKNDDLEDSKSLSDDTDVEVTSEDEWQCTECKKFNSPSKRYCFRCWALRKDWYSDCSKLTHSLSTSDITAIPEKENEGNDVPDCRRTISAPVVRPKDAYIKKENSKLFDPCNSVEFLDLAHSSESQETISSMGEQLDNLSEQRTDTENMEDCQNLLKPCSLCEKRPRDGNIIHGRTGHLVTCFHCARRLKKAGASCPICKKEIQLVIKVFIA
